Test results as given in paper PMC7921410, “Structure of mammalian Mediator complex reveals Tail module architecture and interaction with a conserved core” (Nature Communications, 2021).

T1: MED23 (mouse (Mus musculus; endogenous in CH12), UniProt Q80YQ2 1-1367)
T1 construct: MED23, Mus musculus, endogenous lower Tail subunit of Mediator; Model building started from the X-ray structure of human MED23 (PDB 6H02); source: endogenous, CH12 mouse B lymphoma nuclear extract; immunopurified as part of Mediator (FLAG M2 agarose, FLAG peptide elution)
T1 sequence (looked up): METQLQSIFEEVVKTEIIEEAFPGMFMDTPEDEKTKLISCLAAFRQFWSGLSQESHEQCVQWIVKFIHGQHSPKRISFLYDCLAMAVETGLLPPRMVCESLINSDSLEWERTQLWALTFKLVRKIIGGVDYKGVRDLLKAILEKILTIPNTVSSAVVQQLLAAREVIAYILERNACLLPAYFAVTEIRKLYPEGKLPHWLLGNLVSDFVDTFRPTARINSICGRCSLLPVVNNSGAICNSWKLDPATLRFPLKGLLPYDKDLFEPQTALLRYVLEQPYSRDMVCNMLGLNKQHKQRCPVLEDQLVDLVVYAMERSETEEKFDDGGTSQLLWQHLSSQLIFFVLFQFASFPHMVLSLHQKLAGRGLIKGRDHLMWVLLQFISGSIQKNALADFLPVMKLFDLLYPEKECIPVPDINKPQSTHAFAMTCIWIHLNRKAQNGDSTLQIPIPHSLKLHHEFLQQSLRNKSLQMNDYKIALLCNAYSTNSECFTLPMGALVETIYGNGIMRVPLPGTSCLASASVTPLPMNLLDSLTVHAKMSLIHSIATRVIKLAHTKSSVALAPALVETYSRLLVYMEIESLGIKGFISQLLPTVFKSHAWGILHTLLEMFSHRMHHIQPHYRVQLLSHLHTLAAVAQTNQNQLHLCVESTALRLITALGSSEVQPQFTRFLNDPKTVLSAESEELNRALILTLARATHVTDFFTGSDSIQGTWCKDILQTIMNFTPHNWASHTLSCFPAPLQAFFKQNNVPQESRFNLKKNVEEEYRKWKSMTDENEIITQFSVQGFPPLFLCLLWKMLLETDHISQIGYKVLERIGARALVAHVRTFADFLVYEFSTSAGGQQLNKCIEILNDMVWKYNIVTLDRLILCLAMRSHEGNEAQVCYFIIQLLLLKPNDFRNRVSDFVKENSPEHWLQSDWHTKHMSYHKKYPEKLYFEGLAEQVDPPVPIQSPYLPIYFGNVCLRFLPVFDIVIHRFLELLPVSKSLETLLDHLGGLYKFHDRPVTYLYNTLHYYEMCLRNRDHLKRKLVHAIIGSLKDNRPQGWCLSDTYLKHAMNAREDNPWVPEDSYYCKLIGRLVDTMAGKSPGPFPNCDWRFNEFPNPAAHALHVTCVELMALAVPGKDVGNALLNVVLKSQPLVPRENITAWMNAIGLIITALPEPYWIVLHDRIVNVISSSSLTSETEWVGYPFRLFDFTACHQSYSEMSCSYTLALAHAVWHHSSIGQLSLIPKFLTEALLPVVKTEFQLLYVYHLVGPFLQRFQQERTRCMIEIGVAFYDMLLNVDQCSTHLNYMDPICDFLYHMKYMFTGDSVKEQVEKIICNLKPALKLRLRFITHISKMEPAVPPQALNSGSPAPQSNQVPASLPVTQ

T2: MED16 (mouse (Mus musculus; endogenous in CH12), UniProt Q6PGF3 1-828)
T2 construct: MED16, Mus musculus, endogenous lower Tail subunit of Mediator; source: endogenous, CH12 mouse B lymphoma nuclear extract; immunopurified as part of Mediator (FLAG M2 agarose, FLAG peptide elution)
T2 sequence (looked up): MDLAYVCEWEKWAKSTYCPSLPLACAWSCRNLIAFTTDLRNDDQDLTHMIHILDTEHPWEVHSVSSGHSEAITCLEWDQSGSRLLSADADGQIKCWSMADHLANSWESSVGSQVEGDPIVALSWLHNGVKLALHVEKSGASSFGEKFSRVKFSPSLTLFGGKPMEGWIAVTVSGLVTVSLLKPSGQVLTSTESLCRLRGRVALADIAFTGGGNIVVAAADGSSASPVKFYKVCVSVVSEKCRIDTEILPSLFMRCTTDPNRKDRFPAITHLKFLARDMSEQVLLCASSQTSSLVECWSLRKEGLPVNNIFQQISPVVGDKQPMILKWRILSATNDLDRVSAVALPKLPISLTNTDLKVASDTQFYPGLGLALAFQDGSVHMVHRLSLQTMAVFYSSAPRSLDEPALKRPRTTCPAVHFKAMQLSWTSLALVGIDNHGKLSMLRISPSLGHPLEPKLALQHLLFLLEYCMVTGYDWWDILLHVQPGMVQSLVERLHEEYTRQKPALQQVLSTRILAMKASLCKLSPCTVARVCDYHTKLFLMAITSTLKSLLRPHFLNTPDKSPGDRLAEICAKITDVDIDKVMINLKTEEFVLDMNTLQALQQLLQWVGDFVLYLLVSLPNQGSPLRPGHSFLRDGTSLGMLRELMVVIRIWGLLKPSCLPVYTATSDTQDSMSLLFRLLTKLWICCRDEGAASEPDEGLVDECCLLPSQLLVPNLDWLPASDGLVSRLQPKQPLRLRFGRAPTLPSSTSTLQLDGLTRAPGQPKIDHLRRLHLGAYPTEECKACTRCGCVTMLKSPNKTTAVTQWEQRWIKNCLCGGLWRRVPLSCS

B1: MED15 (natural protein, mouse (Mus musculus; endogenous in CH12), UniProt Q924H2 1-789, looked up)
chain: MDVSGQETDWRSAAFRQKLVSQIEDAMRKAGVAHSKSSKDMESHVFLKAKTRDEYLSLVARLIIHFRDIHNKKSQASVSDPMNALQSLTGGPTPGAAGIGMPPRGPGQSLGGMGGLGAMGQPLPLSGQPPPGTSGMAPHGMAVVSTATPQTQLQLQQVALQQQQQQQQQQQFQQQQAALQQQQQQQQQQQQQQQFQAQQNAMQQQFQAVVQQQQLQQQQQQQHLIKLHHQSQQQQIQQQQLQRMAQLQLQQQQQQQQQQALQAQPPMQQPSMQQPQPPPSQALPQQLSQLHHPQHHQPPPQAQQSPIAQNQPPQIPPQSQSQPLVSQAQALPGPMLYAAQQQLKFVRAPMVVQQPQVQPQVQQVQPQVQPQAAVQAAQSAQMVAPGVQMIAEALAQGGMHVRARFPPTSTMSAGPSSSISLGGQPTTQVSQSSLTMLSSPSPGQQVQTPQSMPPPPQPSPQPGSQPNSNVSSGPAPSPSSFLPSPSPQPSQSPVTARTPQNFSVPSPGPLNTPVNPSSVMSPAGSSQAEEQQYLDKLKQLSKYIEPLRRMINKIDKNEDRKKDLSKMKSLLDILTDPSKRCPLKTLQKCEIALEKLKNDMAVPTPPPPPVLPTKQQDLCQPLLDAVLANIRSPVFNHSLYRTFVPAMMAIHGPPIVSPVVCSRKRRFEEDERQSIPNVLQGEVARLDPKFLVNLDPSHCSNNGTVHLICKLDDKDLPSVPPLELSVPADYPAQSPMWIDRQWQYDANPFLQSVHRCMTSRLLQLPDKHSVTALLNTWAQSIHQACLSAA
notes: MED15, Mus musculus, endogenous lower Tail subunit of Mediator; only the C-terminal portion (from residue 620) is seen in the map; source: endogenous, CH12 mouse B lymphoma nuclear extract; immunopurified as part of Mediator (FLAG M2 agarose, FLAG peptide elution)
B2: MED25 (natural protein, mouse (Mus musculus; endogenous in CH12), UniProt Q8VCB2 1-745, looked up)
chain: MVPGSEGPARAGGLVADVVFVIEGTANLGPYFEELRKHYLLPAIEYFNGGPPAETDFGGDYGGTQYSLVVFNTVDCAPESYVQCHAPTSSAYEFVTWLDGIKFMGGGGESCSLIAEGLSTALQLFDDFKKMREQIGQTHRVCLLICNSPPYLLPAVESTTYSGCTTESLVQKIGERGIHFSIVSPRKLPALRLLFEKAAPPALLEPLQQPADVSQDPRHMVLVRGLVLPVGGSSTSGSLQTKQAVPLPPAPASAATLSAAPPQALPPVPPQYQVPGNLSAAQVAAQNAVEAAKSQKAGLGPRFSPINPLQQAAPGVGPPFSQAPAPPLAPVPPGAPKPPPASQPSLVSTVAPGPVLAAPAQPGAPSLAGTVTPGGVNGPSAAQLGGPALGGQQSVSNKLLAWSGVLEWQEKPKPASVDANTKLTRSLPCQVYVNHGENLKTEQWPQKLIMQLIPQQLLTTLGPLFRNSRMVQFHFTNKDLESLKGLYRIMGNGFAGCVHFPHTAPCEVRVLMLLYSSKKKIFMGLIPYDQSGFVNGIRQVITNHKQVQQQKLEQQRGMGAQQAPPVLGPILEEQARPPQNLLQLRAPQPQPQGAVGASAATGQPQPQGATQAPTGAPQGPPGAAPGPPPSGPILRPQNPGANPQLRSLLLNPAPPQTGVPPPQASLHHLQPPGAPTLLPPHQSMGQPQLGPQLLHPPPAQSWPTQLPQRAPLPGQMLLSGGPRGPVPQPGLQPSVMEDDILMDLI
notes: MED25, Mus musculus, endogenous lower Tail subunit of Mediator; only the N-terminal von Willebrand domain (aa 15-216) is seen in the map; The 3×FLAG tag stands on MED25 only in the MED25-FLAG cell line; in the MED19-FLAG line MED25 is untagged; Images from the datasets were combined for the final map; also called MED25-FLAG; source: endogenous, CH12 mouse B lymphoma nuclear extract; …

Experiments:
[1] = molecular target: T1, MED23; experiment: cryo-EM structure; endogenous mouse Mediator immunopurified from CH12 nuclear extract through 3×FLAG-MED19 or 3×FLAG-MED25; eluted in 50 mM HEPES pH 7.9, 100 mM KCl, 5% glycerol, 1 mM EDTA, 0.005% NP-40; map at 4.0 Å overall, focused refinement of the MED1 and knob/hook ends (6-10 Å); conditions: both partners purified
[2] = molecular target: T2, MED16; experiment: as above; conditions: both partners purified

Row | Binder | binding result [1] | binding result [2]
1 | B1 | binds | binds
2 | B2 | binds | binds
